{
  "source": "patent US20110206668A1",
  "target": "murine MRC OX-2 (mouse) (UniProt O54901)",
  "sequence (O54901 31-278 limits assumed)": "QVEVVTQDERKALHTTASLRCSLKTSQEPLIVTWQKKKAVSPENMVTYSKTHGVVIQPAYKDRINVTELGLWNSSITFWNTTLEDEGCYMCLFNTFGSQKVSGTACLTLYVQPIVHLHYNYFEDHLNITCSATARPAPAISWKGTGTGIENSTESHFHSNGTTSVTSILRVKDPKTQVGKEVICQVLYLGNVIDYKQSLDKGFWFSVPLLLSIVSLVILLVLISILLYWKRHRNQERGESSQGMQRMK",
  "experiment": "FACS of 10-day cultured mouse bone marrow derived dendritic cells, anti-CD200 and PE anti-mouse IgG",
  "data": [
    {"substance": "mouse IgG1 anti-rat CD200 (commercial anti-rat MRC OX-2 monoclonal antibody, Cedarlane Labs)", "values": [
      {"measurement": "percent stained cells", "value": 14, "unit": "%"}
    ]}
  ]
}
